Source: paper PMC11794977, “Inhibitory Potential and Binding Thermodynamics of Scyllatoxin‐Based BH3 Domain Mimetics Targeting Repressor BCL2 Proteins” (Journal of Molecular Recognition, 2025)

Experiments:
[1] = target: T1, Bcl‐2‐ΔTM (recombinant His‐tagged Bcl‐2 without its transmembrane domain); experiment: ITC; 200 μM acetylated peptide injected into 20 μM Bcl‐2‐ΔTM in the cell; binding buffer (50 mM Tris, 100 mM NaCl, pH 8.0); 25°C; one‐site model; Kd as reciprocal of Ka; triplicate; details: both partners purified
T1 construct: also called Bcl‐2 (proper); Bcl‐2‐ΔTM proteins

[2] = target: T1, Bcl‐2‐ΔTM (recombinant His‐tagged Bcl‐2 …); experiment: fluorescence polarisation; competition: 100 nM Bcl‐2‐ΔTM and 25 nM ^FluBax‐BH3^ΔB pre‐incubated 1 h, then acetylated peptide (100 μM to 2.3 pM) added for 1 h; binding buffer (50 mM Tris, 100 mM NaCl, pH 8.0); ambient temperature; triplicate; details: both partners purified

B1: ^AcBax‐BH3^ΔB (peptide)
chain: STKKLSEXLKRIGDELDSNM
HELM: PEPTIDE1{[ac].S.T.K.K.L.S.E.[Abu].L.K.R.I.G.D.E.L.D.S.N.M.[am]}$$$$V2.0
SMILES: CC[C@H](NC(=O)[C@H](CCC(=O)O)NC(=O)[C@H](CO)NC(=O)[C@H](CC(C)C)NC(=O)[C@H](CCCCN)NC(=O)[C@H](CCCCN)NC(=O)[C@@H](NC(=O)[C@H](CO)NC(C)=O)[C@@H](C)O)C(=O)N[C@@H](CC(C)C)C(=O)N[C@@H](CCCCN)C(=O)N[C@@H](CCCNC(=N)N)C(=O)N[C@H](C(=O)NCC(=O)N[C@@H](CC(=O)O)C(=O)N[C@@H](CCC(=O)O)C(=O)N[C@@H](CC(C)C)C(=O)N[C@@H](CC(=O)O)C(=O)N[C@@H](CO)C(=O)N[C@@H](CC(N)=O)C(=O)N[C@@H](CCSC)C(N)=O)[C@@H](C)CC
Kd [1]: 0.191 µM | dH [1]: -22.7 kJ/mol | stoichiometry N [1]: 0.93 | IC50 [2]: 0.141 µM
